Laboratory results reported in patent US20240084003A1 (SIMCERE ZAIMING PHARMACEUTICAL, published 2024).
Positions count from the first letter of the chain named. Blank lines part the entries; values can stand above or below the binder they belong to.

Legend:
[1] = target: T1, human CD22, endogenous on Raji cells (human, UniProt P20273 20-847); test: FACS, Raji cells
T1 construct: whole, on cells; Endogenous protein of the Raji cell line
T1 sequence (looked up): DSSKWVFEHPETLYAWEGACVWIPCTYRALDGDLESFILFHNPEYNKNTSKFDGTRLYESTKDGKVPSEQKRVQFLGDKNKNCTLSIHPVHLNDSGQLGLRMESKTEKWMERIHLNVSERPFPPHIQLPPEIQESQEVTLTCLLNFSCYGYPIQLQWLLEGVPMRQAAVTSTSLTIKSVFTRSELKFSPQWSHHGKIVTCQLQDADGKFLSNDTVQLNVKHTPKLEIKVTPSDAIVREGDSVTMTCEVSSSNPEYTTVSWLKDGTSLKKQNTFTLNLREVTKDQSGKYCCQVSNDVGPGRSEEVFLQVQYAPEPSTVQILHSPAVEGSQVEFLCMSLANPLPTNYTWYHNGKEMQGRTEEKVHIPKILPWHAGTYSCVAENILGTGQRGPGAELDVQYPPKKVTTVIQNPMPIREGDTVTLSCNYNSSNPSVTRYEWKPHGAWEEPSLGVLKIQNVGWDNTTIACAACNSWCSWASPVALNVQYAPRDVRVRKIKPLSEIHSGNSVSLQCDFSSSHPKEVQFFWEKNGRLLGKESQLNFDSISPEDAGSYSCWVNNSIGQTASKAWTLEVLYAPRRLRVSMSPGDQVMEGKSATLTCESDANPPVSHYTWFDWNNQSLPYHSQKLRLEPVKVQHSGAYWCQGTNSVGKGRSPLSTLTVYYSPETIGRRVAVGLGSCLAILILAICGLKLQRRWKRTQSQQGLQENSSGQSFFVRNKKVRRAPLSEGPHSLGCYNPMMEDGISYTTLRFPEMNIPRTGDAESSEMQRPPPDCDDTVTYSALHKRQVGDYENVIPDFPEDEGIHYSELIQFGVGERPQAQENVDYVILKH
Description: (§1) The required cells were scale-up cultured in a T-75 cell culture flask to the logarithmic growth phase. For the adherent cell CHO-K1, the medium was aspirated, the cells were washed 2 times with PBS buffer, and then digested with trypsin. After the digestion was terminated, the cells were washed 2 times with PBS buffer. For suspension cell Raji, the medium supernatant was directly centrifuged and discarded, and the cell pellet was washed 2 times with PBS. After counting the cells in the previous step, the cell pellet was resuspended with [PBS+2% (w/w) BSA] blocking solution to 2×10⁶ cells/ml, and added to a 96-well FACS reaction plate at 50 μl/well, and then the chimeric antibody test sample was added at 50 μl/well, and incubated on ice for 2 hours. The mixture was centrifuged and washed 3 times with PBS buffer, Alexa Flour 488-labeled secondary antibody (purchased from Invitrogen, catalog number: A-11013) was added at 50 μl/well, and incubated on ice for 1 hour. The obtained mixture was centrifuged and washed 5 times with PBS, and FACS (FACS Canto™, purchased from BD Company) was used for detection and result analysis. Data analysis was performed by software (CellQuest) to obtain the mean fluorescence density (MFI)of the cells. And then software (GraphPad Prism8) was used for analysis, data fitting, and EC50 value calculation. […] The same method was used to detect the binding of the chimeric antibodies to endogenous CD22-negative cell MoLT4 cells (purchased from ATCC, CRL-1582) and CHO-K1 cells.

[2] = target: T2, murine CD22 protein (ACROBiosystems, SI2-M52Ha) (murine, UniProt P35329 22-708); test: ELISA, coated murine CD22, 0.001 nM Ab
T2 construct: extracellular domain; also called murine CD22-ECD; murine CD22-ECD-His
T2 sequence (looked up): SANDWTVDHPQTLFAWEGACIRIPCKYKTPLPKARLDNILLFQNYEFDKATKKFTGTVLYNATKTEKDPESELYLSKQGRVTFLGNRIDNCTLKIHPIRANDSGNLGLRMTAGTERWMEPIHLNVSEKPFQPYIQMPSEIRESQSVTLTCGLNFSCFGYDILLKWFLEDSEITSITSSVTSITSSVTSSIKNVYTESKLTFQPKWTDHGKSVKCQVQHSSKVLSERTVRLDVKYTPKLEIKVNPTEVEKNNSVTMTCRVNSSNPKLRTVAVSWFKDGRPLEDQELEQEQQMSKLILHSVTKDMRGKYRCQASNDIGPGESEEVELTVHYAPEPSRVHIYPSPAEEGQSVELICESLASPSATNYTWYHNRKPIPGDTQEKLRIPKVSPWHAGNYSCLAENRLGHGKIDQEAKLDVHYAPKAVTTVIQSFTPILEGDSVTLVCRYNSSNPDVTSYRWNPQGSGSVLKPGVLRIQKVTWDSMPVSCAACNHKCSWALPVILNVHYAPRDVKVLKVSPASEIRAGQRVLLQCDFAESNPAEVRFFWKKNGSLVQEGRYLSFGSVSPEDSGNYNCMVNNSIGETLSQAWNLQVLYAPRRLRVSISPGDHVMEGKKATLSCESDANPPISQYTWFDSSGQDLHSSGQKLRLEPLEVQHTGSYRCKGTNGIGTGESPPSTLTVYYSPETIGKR
Summary of the method: (§2)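 Read-out is TMB absorbance after a 30 min room-temperature development stopped with 1.0 N HCl. It reflects chimeric antibody bound to plate-coated CD22 (2 μg/mL), detected with an HRP-labelled secondary antibody. Antibody and secondary incubations each ran 2 h at 37° C.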

[3] = target: T2, murine CD22 protein (ACROBiosystems, …); test: ELISA, coated murine CD22, 0.01 nM Ab
Summary of the method: as §2

[4] = target: T2, murine CD22 protein (ACROBiosystems, …); test: ELISA, coated murine CD22, 0.1 nM Ab
Summary of the method: as §2

[5] = target: T2, murine CD22 protein (ACROBiosystems, …); test: ELISA, coated murine CD22, 10 nM Ab
Summary of the method: as §2

[6] = target: T2, murine CD22 protein (ACROBiosystems, …); test: ELISA, coated murine CD22, 0.0001 nM Ab
Summary of the method: as §2

[7] = target: T2, murine CD22 protein (ACROBiosystems, …); test: ELISA, coated murine CD22, 100 nM Ab
Summary of the method: as §2

[8] = target: T3, human CD22, full length, on CHO-K1-human CD22 2C4 cells (human, UniProt P20273 20-847); test: FACS, CHO-K1-human CD22 2C4 cells
T3 construct: Full-length human CD22 (NCBI NP_001762.2) stably transfected into CHO-K1
T3 sequence: T1 sequence (looked up)
Description: as §1

[9] = target: T2, murine CD22 protein (ACROBiosystems, …); test: ELISA, coated murine CD22, 0.00001 nM Ab
Summary of the method: as §2

B1: F2.343.16 human-murine chimeric antibody (antibody, human IgG1, lambda, V domains shown)
VH: QVQLKQSGPGLVQPSQSLSITCTVSGFSLTGYGVQWVRQSPGKGLEWLGVIWGGGGTDYNAAFISRLNIIKDNSKSQVFFKMNSLQADDTAIYYCARYSKYGHFDVWGTGTAVTVSS
VL: QAVVTQESALTTSPGETVTLTCRSSTGAVTTSNYANWVQEKPDHLFTGLIGGTYNRVPGVPARFSGSLIGDKAALTITGAQTEDEAIYFCALWYSNHFWVFGGGTKLTVLG
notes: Chimeric, human IgG1 / lambda; VL tied by name
EC50 [1]: 800 pM
Maximum mean fluorescence intensity [1]: 19300 MFI
OD450 [2]: 0.05 OD450
OD450 [3]: 0.05 OD450
OD450 [4]: 0.05 OD450
OD450 [5]: 0.06 OD450
OD450 [6]: 0.05 OD450
OD450 [7]: 0.07 OD450
EC50 [8]: 1150 pM
Maximum mean fluorescence intensity [8]: 50200 MFI
OD450 [9]: 0.06 OD450

B4: F2.127.11 human-murine chimeric antibody (antibody, human IgG1, lambda, V domains shown)
VH: QVTLKESGPGILQPSQTLSLTCSFSGFSLSTFGMGVGWIRQPSGKGLEWLAHIWWDDDKHYNPALKSRLTISKDTSRNQVFLKIANVDTADGATYFCARDNWVSSLDYWGQGTSVIVSS
VL: QPVITQSSSASFSLGASAELTCTLSSQHSTYTIEWYQQQPLKPPKYVMGLKKDGSHSTGDGIPDRFSGSSSGADRYLSISNIQPEDEAIYICGVSDTIKEQFVYVFGGGTKVTVLG
notes: as for B1
EC50 [1]: 590 pM
Maximum mean fluorescence intensity [1]: 24400 MFI
OD450 [2]: 0.05 OD450
OD450 [3]: 0.05 OD450
OD450 [4]: 0.06 OD450
OD450 [5]: 0.07 OD450
OD450 [6]: 0.06 OD450
OD450 [7]: 0.1 OD450
EC50 [8]: 1220 pM
Maximum mean fluorescence intensity [8]: 58500 MFI
OD450 [9]: 0.06 OD450

B7: F2.151.13 human-murine chimeric antibody (antibody, human IgG1, lambda, V domains shown)
VH: QVHLQQPGTELMKPGASVKLSCKATGYTFRDYWLEWVKQRPGHGLEWIGEILPGSGNAYYNEKFKGKATFTADTSSNTAYMQLSSLTTEDSAIYYCARVYSNWYFDAWGKGTTVTVSS
VL: QAVVTQESALTTSPGETVTLTCRSSTGAVTTSNYANWVQEKPDHLFTGLIGGTNNQAPGVPARFSGSLIGDKAALTISGAQTEDEAIYFCALWFSNHWVFGGGTKLTVLG
notes: Chimeric, human IgG1 / lambda
EC50 [1]: 1260 pM
Maximum mean fluorescence intensity [1]: 18800 MFI
OD450 [2]: 0.07 OD450
OD450 [3]: 0.07 OD450
OD450 [4]: 0.07 OD450
OD450 [5]: 0.08 OD450
OD450 [6]: 0.07 OD450
OD450 [7]: 0.09 OD450
EC50 [8]: 3280 pM
Maximum mean fluorescence intensity [8]: 37000 MFI
OD450 [9]: 0.07 OD450

More lines, in order of falling EC50 [1], values ahead:

EC50 [1]: 590 pM
Maximum mean fluorescence intensity [1]: 18100 MFI
OD450 [2]: 0.05 OD450
OD450 [3]: 0.06 OD450
OD450 [4]: 0.05 OD450
OD450 [5]: 0.06 OD450
OD450 [6]: 0.05 OD450
OD450 [7]: 0.07 OD450
EC50 [8]: 830 pM
Maximum mean fluorescence intensity [8]: 44800 MFI
OD450 [9]: 0.06 OD450
B3: F2.99.1 human-murine chimeric antibody (antibody, human IgG1, lambda, V domains shown)
VH: QVTLKESGPGILQPSQTLSLTCSFSGFSLSTFPMGVGWIRQPSGKGLEWLAHIWWDDDEYYNPVLKSRLTISKDTSKKQVYLRIANVDTVDTATYYCTRANWDRWYFDVWGTGTTVTVSS
VL: QLVLTQSSSASFSLGASAKLTCTLSRQHSAYTIEWYQQQPLKPPKYVMEVKKDGSHSTGDGIPDRFSGSSSGADRYLSISNIQPEDEAIYICGVGDTIKEHFVFGGGTKVTVLG
notes: as for B1

EC50 [1]: 410 pM
Maximum mean fluorescence intensity [1]: 18600 MFI
OD450 [2]: 0.05 OD450
OD450 [3]: 0.05 OD450
OD450 [4]: 0.06 OD450
OD450 [5]: 0.06 OD450
OD450 [6]: 0.06 OD450
OD450 [7]: 0.09 OD450
EC50 [8]: 820 pM
Maximum mean fluorescence intensity [8]: 42000 MFI
OD450 [9]: 0.06 OD450
B5: F2.55.1 human-murine chimeric antibody (antibody, human IgG1, lambda, V domains shown)
VH: QVTLKESGPGILQPSQTLSLTCSFSGFSLSTFPLGVGWIRQPSGKGLEWLAHVWWNDDDYYNPALKSRLTISKDTSNTRVFLSVASVDTAETATYYCARLNWDRWYFDVWGTGTTVTVSS
VL: B3 VL with R26S, I33V, V50L, I98V, H101Q
notes: as for B1

EC50 [1]: 380 pM
Maximum mean fluorescence intensity [1]: 15500 MFI
OD450 [2]: 0.05 OD450
OD450 [3]: 0.05 OD450
OD450 [4]: 0.05 OD450
OD450 [5]: 0.06 OD450
OD450 [6]: 0.05 OD450
OD450 [7]: 0.07 OD450
EC50 [8]: 720 pM
Maximum mean fluorescence intensity [8]: 40200 MFI
OD450 [9]: 0.06 OD450
B2: F2.205.9 human-murine chimeric antibody (antibody, human IgG1, lambda, V domains shown)
VH: QVTLKESGPGILQPSQTLSLTCSFSGFSLSTSGMGVGWIRQPSGKGLEWLAHIWWDDDEYYNPALKSRLTISKDTSKNQVFLKIANVDTADTATYYCARISIPYGYYDWFFDVWGTGTTVTVSA
VL: B7 VL with S32R, Q56R, S78T, F94Y, W98F, V99I, G102S, L106V
notes: as for B1

EC50 [1]: 330 pM
Maximum mean fluorescence intensity [1]: 16700 MFI
OD450 [2]: 0.07 OD450
OD450 [3]: 0.07 OD450
OD450 [4]: 0.08 OD450
OD450 [5]: 0.08 OD450
OD450 [6]: 0.08 OD450
OD450 [7]: 0.09 OD450
EC50 [8]: 870 pM
Maximum mean fluorescence intensity [8]: 41000 MFI
OD450 [9]: 0.08 OD450
B6: F2.42.9 human-murine chimeric antibody (antibody, human IgG1, lambda, V domains shown)
VH: QVTLKESGPGILQPSQTLSLTCSFSGFSLSTFDRGVGWIRQPSGKGLEWLAHIWWNDKKFYNPVLKSRLTISKDTSKNQVFLTIANVDSADTATYSCARIVWDKYYFDYWGQGIPLTVSS
VL: B3 VL with R26S, Y46F, E49D, V50L, D64A, S78T, H101Q, F102Y
notes: as for B1
